Measurements published in US20220289816A1, “IMMUNOTHERAPY WITH B*07 RESTRICTED PEPTIDES AND COMBINATION OF PEPTIDES AGAINST CANCERS AND RELATED METHODS” (Immatics Biotechnologies GmbH, priority 2018, published 2022).

Molecular target: HLA-B*07 (Homo sapiens, UniProt P01889)
Assay: MHC binding assay (UV-ligand exchange, ELISA of stabilized MHC complexes)
Conditions: peptide exchange yield on HLA-B*07, UV-ligand exchange
Description: Candidate peptides for T cell based therapies according to the present invention were further tested for their MHC binding capacity (affinity). The individual peptide-MHC complexes were produced by UV-ligand exchange, where a UV-sensitive peptide is cleaved upon UV-irradiation and exchanged with the peptide of interest as analyzed. Only peptide candidates that can effectively bind and stabilize the peptide-receptive MHC molecules prevent dissociation of the MHC complexes. To determine the yield of the exchange reaction, an ELISA was performed based on the detection of the light chain (β2m) of stabilized MHC complexes. The assay was performed as generally described in Rodenko et al. (Rodenko et al., 2006)
96 well MAXISorp plates (NUNC) were coated over night with 2 ug/ml streptavidin in PBS at room temperature, washed 4× and blocked for 1 h at 37° C. in 2% BSA containing blocking buffer. […] Peptide-MHC monomers of the UV-exchange reaction were diluted 100-fold in blocking buffer. Samples were incubated for 1 h at 37° C., washed four times, incubated with 2 ug/ml HRP conjugated anti-[…] for 1 h at 37° C., washed again and detected with TMB solution that is stopped with […]. Absorption was measured at 450 nm. Candidate peptides that show a high exchange yield (preferably higher than 50%, most preferred higher than 75%) are generally preferred for a generation and production of antibodies or fragments thereof, and/or T cell receptors or fragments thereof, as they show sufficient avidity to the MHC molecules and prevent dissociation of the MHC complexes.

Substance	Peptide exchange
101 (KPGLPGLK; listed as Homo sapiens) [compound 101]	+ (>10% = +)
153 (QPVHSLCSA; listed as Homo sapiens) [compound 153]	++++ (>75% = ++++)
47 (RPRQTGALM; listed as Homo sapiens) [compound 47]	++++ (>75% = ++++)
161 (ASKILETSL; listed as Homo sapiens) [compound 161]	++ (>20% = ++)
103 (REPIMKADML; listed as Homo sapiens) [compound 103]	++ (>20% = ++)
39 (QPRPSSEKI; listed as Homo sapiens) [compound 39]	+++ (>50 = +++)
94 (LPMSKRQEY; listed as Homo sapiens) [compound 94]	+++ (>50 = +++)
177 (VWEPQGSSRSL; listed as Homo sapiens) [compound 177]	+++ (>50 = +++)
181 (LPVSPARAL; listed as Homo sapiens) [compound 181]	+++ (>50 = +++)
253 (MPVDSFNSML; listed as Homo sapiens) [compound 253]	++++ (>75% = ++++)
40 (FPRTVKHIDAAL; listed as Homo sapiens) [compound 40]	++++ (>75% = ++++)
50 (PEKARAFL; listed as Homo sapiens) [compound 50]	+++ (>50 = +++)
227 (RPGTGQGGL; listed as Homo sapiens) [compound 227]	+++ (>50 = +++)
89 (FLIPRAGWLAGL; listed as Homo sapiens) [compound 89]	++ (>20% = ++)
134 (VAAAARLTL; listed as Homo sapiens) [compound 134]	+++ (>50 = +++)
267 (MPVPGILL; listed as Homo sapiens) [compound 267]	+++ (>50 = +++)
14 (AVHEIGHSL; listed as Homo sapiens) [compound 14]	+++ (>50 = +++)
143 (YPMIPPAQL; listed as Homo sapiens) [compound 143]	+++ (>50 = +++)
31 (RPGPSDPAA; listed as Homo sapiens) [compound 31]	+++ (>50 = +++)
168 (SPSGQRDVSL; listed as Homo sapiens) [compound 168]	++++ (>75% = ++++)
11 (APLPRPGAV; listed as Homo sapiens) [compound 11]	++++ (>75% = ++++)
130 (GAYDKARYL; listed as Homo sapiens) [compound 130]	++ (>20% = ++)
256 (SPVPSHWMVAL; listed as Homo sapiens) [compound 256]	++++ (>75% = ++++)

Substance	Peptide exchange
219 (VPHTGRYTCL; listed as Homo sapiens) [compound 219]	+++ (>50 = +++)
92 (TSPLPPTV; listed as Homo sapiens) [compound 92]	+++ (>50 = +++)
141 (YGPYGSGSGW; listed as Homo sapiens) [compound 141]	++ (>20% = ++)
202 (SPSREASAL; listed as Homo sapiens) [compound 202]	+++ (>50 = +++)
220 (RPAPGPAPFV; listed as Homo sapiens) [compound 220]	+++ (>50 = +++)
80 (SALPTTISF; listed as Homo sapiens) [compound 80]	+++ (>50 = +++)
230 (DVIDDIISL; listed as Homo sapiens) [compound 230]	++++ (>75% = ++++)
174 (IPVTSSVTL; listed as Homo sapiens) [compound 174]	++++ (>75% = ++++)
111 (YPLQQTNVY; listed as Homo sapiens) [compound 111]	+ (>10% = +)
207 (VPSDITTAF; listed as Homo sapiens) [compound 207]	+++ (>50 = +++)
172 (SAQSLHPVL; listed as Homo sapiens) [compound 172]	+++ (>50 = +++)
112 (YPSPLNKHSF; listed as Homo sapiens) [compound 112]	+++ (>50 = +++)
60 (RPYSIYPHGVTF; listed as Homo sapiens) [compound 60]	++++ (>75% = ++++)
75 (HVRPQTNCI; listed as Homo sapiens) [compound 75]	+++ (>50 = +++)
255 (VPSHWMVAL; listed as Homo sapiens) [compound 255]	++++ (>75% = ++++)
226 (APGGSSRSSL; listed as Homo sapiens) [compound 226]	+++ (>50 = +++)
271 (SPTPVFTTL; listed as Homo sapiens) [compound 271]	+++ (>50 = +++)
27 (RIRVTSEVL; listed as Homo sapiens) [compound 27]	+++ (>50 = +++)
158 (SVPVATVEL; listed as Homo sapiens) [compound 158]	++ (>20% = ++)
178 (VPYYPRANL; listed as Homo sapiens) [compound 178]	+++ (>50 = +++)
229 (FPNAGPRHLL; listed as Homo sapiens) [compound 229]	+++ (>50 = +++)
249 (SPRSGVLL; listed as Homo sapiens) [compound 249]	+++ (>50 = +++)
254 (RVIQGTTTL; listed as Homo sapiens) [compound 254]	++++ (>75% = ++++)

Next, values leading:

Peptide exchange	Substance
+++ (>50 = +++)	309 (FAFYGGKSL; listed as Homo sapiens) [compound 309]
++++ (>75% = ++++)	359 (SPRRLVELAGQSL; listed as Homo sapiens) [compound 359]
+++ (>50 = +++)	275 (IPAPQGAVL; listed as Homo sapiens) [compound 275]
++ (>20% = ++)	277 (MPPLLIVAF; listed as Homo sapiens) [compound 277]
+ (>10% = +)	373 (LPKPDLPQLI; listed as Homo sapiens) [compound 373]
++++ (>75% = ++++)	290 (RPTHPLRSF; listed as Homo sapiens) [compound 290]
+++ (>50 = +++)	279 (APADEPRTVL; listed as Homo sapiens) [compound 279]
+++ (>50 = +++)	291 (SPSKSLEM; listed as Homo sapiens) [compound 291]
++++ (>75% = ++++)	313 (VPLSSYVSI; listed as Homo sapiens) [compound 313]
++++ (>75% = ++++)	495 (SPSYTQASL; listed as Homo sapiens) [compound 495]
+++ (>50 = +++)	306 (RPFPLALL; listed as Homo sapiens) [compound 306]
++++ (>75% = ++++)	330 (RPFSAIAEL; listed as Homo sapiens) [compound 330]
+++ (>50 = +++)	483 (KPAAAGVKKVA; listed as Homo sapiens) [compound 483]
++++ (>75% = ++++)	346 (IPMPRITWL; listed as Homo sapiens) [compound 346]
++++ (>75% = ++++)	489 (WPNHIMLVL; listed as Homo sapiens) [compound 489]
++++ (>75% = ++++)	466 (SPMEAILVSRL; listed as Homo sapiens) [compound 466]
++++ (>75% = ++++)	473 (LPGEREAAL; listed as Homo sapiens) [compound 473]
+++ (>50 = +++)	302 (IPIDQILNSF; listed as Homo sapiens) [compound 302]
+++ (>50 = +++)	480 (VPAAPTKAL; listed as Homo sapiens) [compound 480]
+ (>10% = +)	492 (IPFSVDEI; listed as Homo sapiens) [compound 492]
++++ (>75% = ++++)	294 (VPKPAIPSSSVL; listed as Homo sapiens) [compound 294]
+++ (>50 = +++)	356 (RPFLRLPSL; listed as Homo sapiens) [compound 356]
++++ (>75% = ++++)	376 (FPQVGRTAL; listed as Homo sapiens) [compound 376]
++++ (>75% = ++++)	311 (APRLALDPDAL; listed as Homo sapiens) [compound 311]
+++ (>50 = +++)	377 (SPFSKRIKL; listed as Homo sapiens) [compound 377]
+++ (>50 = +++)	338 (MPATPSLKV; listed as Homo sapiens) [compound 338]
+++ (>50 = +++)	383 (KPRATWTLKL; listed as Homo sapiens) [compound 383]
+++ (>50 = +++)	305 (AASPVGSAL; listed as Homo sapiens) [compound 305]
++++ (>75% = ++++)	282 (AVRLPTPNL; listed as Homo sapiens) [compound 282]
